Results from patent US20190170753A1 (ICAHN SCHOOL OF MEDICINE AT MOUNT SINAI, published 2019).
Where no end group is shown, it is not given here.

Tests used:
[1] = biological target: T1, WT1STHV biotin labeled HCV core peptide (hepatitis C virus, biotin labeled (position not given)); assay: capture EIA; Ab 500 ng/mL; bt-peptide 500 ng/mL
T1 peptide: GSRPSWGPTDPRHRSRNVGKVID

[2] = biological target: T2, Mut6T110S biotin labeled HCV core peptide (hepatitis C virus, biotin labeled (position not given)); assay: capture EIA; Ab 500 ng/mL; bt-peptide 500 ng/mL
[3] = biological target: T3, Mut1T110N biotin labeled HCV core peptide (hepatitis C virus, biotin labeled (position not given)); assay: capture EIA; Ab 500 ng/mL; bt-peptide 500 ng/mL
T3 peptide: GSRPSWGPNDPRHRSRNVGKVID

[4] = biological target: T4, 92-133 biotin labeled HCV core peptide (hepatitis C virus, UniProt Q9WMX2 92-133, chain 1: biotin label (bt-pep). Its position and any spacer are not visible in the passages shown.); assay: capture EIA; Ab 500 ng/mL; bt-peptide 500 ng/mL
T4 construct: Only the label 92-133 is printed
T4 peptide: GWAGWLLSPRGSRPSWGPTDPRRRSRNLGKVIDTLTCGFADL
Method: (§1) Assay wells were coated with sheep anti-mouse IgG Fc specific antibody and incubated overnight. The coating solution was then removed; the wells blocked using BSA/tween in PBS and then washed with dH2O. […] Next, biotin labeled peptides (diluted to 500 ng/mL in block) were added, the plates incubated for 10 minutes while shaking at 700 rpm and then washed. Peroxidase conjugated streptavidin (diluted to 200 ng/mL in block) was then added to all assay wells, incubated for 20 minutes while shaking at 700 rpm and then washed. Finally, color was developed using OPD and signal quenched using 1N H₂SO₄. Signal was read at 492 nm.

[5] = biological target: T5, C113T109N biotin labeled HCV core peptide (hepatitis C virus, also: biotin labeled, position not given here); assay: capture EIA; Ab 500 ng/mL; bt-peptide 500 ng/mL
T5 construct: also called C113T110N
T5 peptide: RGSRPSWGPND

[6] = biological target: T6, C113WT biotin labeled HCV core peptide (hepatitis C virus, also: biotin labeled, position not given here); assay: capture EIA; Ab 500 ng/mL; bt-peptide 500 ng/mL
T6 peptide: RGSRPSWGPTD

HCV core peptide 48 = biological target: T7, HCV core peptide 48 (hepatitis C virus, HELM PEPTIDE1{[O=C1N[C@H]2[C@H](CS[C@H]2CCCCC(=O)[*:2])N1].S.G.S.G.G.W.L.L.S.P.R.G.S.R.P.S.W.G.P.[am]}$$$$V2.0; SMILES …); assay: peptide EIA
T7 construct: also called aa 95-109
T7 peptide: SGSGGWLLSPRGSRPSWGP

HCV core peptide 49 = biological target: T8, HCV core peptide 49 (hepatitis C virus, HELM PEPTIDE1{[O=C1N[C@H]2[C@H](CS[C@H]2CCCCC(=O)[*:2])N1].S.G.S.G.L.L.S.P.R.G.S.R.P.S.W.G.P.T.D.[am]}$$$$V2.0; SMILES …); assay: peptide EIA
T8 peptide: SGSGLLSPRGSRPSWGPTD

[7] = biological target: T1, WT1STHV biotin labeled HCV core peptide; assay: capture EIA; Ab 15.6 ng/mL; bt-peptide 500 ng/mL (summary of Table 7)
Method: as §1

[8] = biological target: T3, Mut1T110N biotin labeled HCV core …; assay: as above
Method: as §1

[9] = biological target: T5, C113T109N biotin labeled HCV core …; assay: as above
Method: as §1

[10] = biological target: T6, C113WT biotin labeled HCV core peptide; assay: as above
Method: as §1

[11] = biological target: T1, WT1STHV biotin labeled HCV core peptide; assay: capture EIA; Ab 31.25 ng/mL; bt-peptide 500 ng/mL
Method: as §1

[12] = biological target: T2, Mut6T110S biotin labeled HCV core …; assay: capture EIA; Ab 31.25 ng/mL; bt-peptide 500 ng/mL
Method: as §1

[13] = biological target: T3, Mut1T110N biotin labeled HCV core …; assay: capture EIA; Ab 31.25 ng/mL; bt-peptide 500 ng/mL
Method: as §1

[14] = biological target: T4, 92-133 biotin labeled HCV core peptide; assay: capture EIA; Ab 31.25 ng/mL; bt-peptide 500 ng/mL
Method: as §1

[15] = biological target: T5, C113T109N biotin labeled HCV core …; assay: capture EIA; Ab 31.25 ng/mL; bt-peptide 500 ng/mL
Method: as §1

[16] = biological target: T6, C113WT biotin labeled HCV core peptide; assay: capture EIA; Ab 31.25 ng/mL; bt-peptide 500 ng/mL
Method: as §1

[17] = biological target: T1, WT1STHV biotin labeled HCV core peptide; assay: capture EIA; Ab 125 ng/mL; bt-peptide 500 ng/mL
Method: as §1

[18] = biological target: T2, Mut6T110S biotin labeled HCV core …; assay: capture EIA; Ab 125 ng/mL; bt-peptide 500 ng/mL
Method: as §1

[19] = biological target: T3, Mut1T110N biotin labeled HCV core …; assay: capture EIA; Ab 125 ng/mL; bt-peptide 500 ng/mL
Method: as §1

[20] = biological target: T4, 92-133 biotin labeled HCV core peptide; assay: capture EIA; Ab 125 ng/mL; bt-peptide 500 ng/mL
Method: as §1

[21] = biological target: T5, C113T109N biotin labeled HCV core …; assay: capture EIA; Ab 125 ng/mL; bt-peptide 500 ng/mL
Method: as §1

[22] = biological target: T6, C113WT biotin labeled HCV core peptide; assay: capture EIA; Ab 125 ng/mL; bt-peptide 500 ng/mL
Method: as §1

B1: Neo4 mouse monoclonal antibody (antibody, V domains shown)
VH: QIQLKESGPAVIKPSQSLSLTCIVSGFSITSSVYCWQWIRQPPGKGLEWMGRICYDGSVDYSPSITSRGTISRDTSLNKVFFQLSSVTNEDTAMYYCSRENHIDYYDTTYPSFDVWGAGTTVTVSS
VL: DIVLTQSPASLIVSLGQRATISCRASKSVNEYGYTYMHWYQQKPGLPPKLLIYLASNLDSGVPARFSGSGSGTDFTLNIHPVEEEDAATYYCQHSRELPYTFGGGTKLEIKR
notes: Mouse hybridoma antibody, isotype IgG1, purified with Protein G; also called HCV Neo4
[1]
  signal at 492 nm: 1.91 A492
[2]
  signal at 492 nm: 1.17 A492
[3]
  signal at 492 nm: 0.065 A492
[4]
  signal at 492 nm: 1.48 A492
[5]
  signal at 492 nm: 0.0803 A492
[6]
  signal at 492 nm: 0.0561 A492
HCV core peptide 48
  binding result: no binding
HCV core peptide 49
  binding result: no binding
[7]
  signal at 492 nm: 1.42 A492
[8]
  signal at 492 nm: 0.0771 A492
[9]
  signal at 492 nm: 0.0736 A492
[10]
  signal at 492 nm: 0.0697 A492
[11]
  signal at 492 nm: 1.67 A492
[12]
  signal at 492 nm: 0.48 A492
[13]
  signal at 492 nm: 0.0938 A492
[14]
  signal at 492 nm: 1.11 A492
[15]
  signal at 492 nm: 0.0815 A492
[16]
  signal at 492 nm: 0.0622 A492
[17]
  signal at 492 nm: 1.93 A492
[18]
  signal at 492 nm: 1.27 A492
[19]
  signal at 492 nm: 0.204 A492
[20]
  signal at 492 nm: 1.31 A492
[21]
  signal at 492 nm: 0.0858 A492
[22]
  signal at 492 nm: 0.0599 A492
